Earlier results in PMC6589385.

Target: His19 (position 19, …)
Assay: NMR
Conditions: Membrane-bound wild-type BM2 tetrameric channel

MLEPFQILSISSFILSALHFMAWTIGHLNQIKR [Influenza B virus M2 protein (BM2) transmembrane domain, wild type (Influenza B virus)]
pKa: 5.1
